T1: HLA-A2402 (human, UniProt P04439-2 25-302 at identity 0.92))
T1 MHC heavy: not shown


Biological target: T1, HLA-A2402
Assay: cell-based or functional assay

lowest peptide concentration at which enhancement of IFN-γ production by KE4-CTLs was detected (peptide-pulsed ClR/A2402 cells) [nM]	Binder
≥ 100	HYTNASDGL [Lck208-216]
~1	TFDYLRSVL [Lck486-494]
~1	DYLRSVLEDF [Lck488-497]
